Data reported in a protein production outcome set (Wang et al. 2014).

Test: label from the status in PepcDB records

| Sequence | protein production |
| --- | --- |
| WLDLAPSTQVDTETSINVLSDIEFTLNGIYSTMQSSDAYSGRLVYYGDVTGDDMQAVSSTKRTGNYYRFNFTKDNGPSSHWSYLYSIIQNCNLILMNVDKLSIDEDETEYKNDLKGQALAIRGMALFDLTRIFGYPYLKDNGASLGVPIVKELSTIDSKPARNTVAECYTEIISDLKNSTELLSGDFNKGKVNRWAAMTLLSRVYLYKGEYNEALTMAENAIKGAEKEGYALWTNEEYPTAWGNDASASNPGEILFEIVNLTTDSPGKESMGYLNSYNGYDDMCITCSFYQLLKKDPKDVRLKILSFDKKYYAYVNKYQPQQGENITDANIPLIRLSEAYLNAAEAAVQTGDNAKAVKYLNSIVQRANPENSVEGKTLTLENVLDERRKELVAEGHRMYDVIRNGMTVKRIDVKDSDINKTKHNTAYMEYDWNFHKILLPIPKKEMDANPNMKQNPGYVD | not failed |
| MLNPDELVAIDIHTHAEEPCGCHADDGYDDFQARMAEYFGSPNKHPPTVPETAAYYRAKKIAAVIFPVDAERETGFRRYNNDEMIEITRQNSDVLIPFASIDPHKGKIGVREARRLIADYGIKGFKFHPTMQGFYANDRLAYPLYEAIQEGGAIALFHTGQTGVGSGMPGGMGMRLKYSNPMYMDDVAADFPDMKIVLAHPSFPWQEEALSVATHKPNVYIDLSGWSPKYFPPILVRYINSILQDKMLFGSDWPVITPDRWLSDFAKLEIREEVRAKVLKQNARKLLGI | failed |
| MAQSFLLMGALIQHHLKGEKADLLTPEKLLEAANKQGTVPSRVRYQWMEDEETGRLKAVGYHTSMESGRDQVRVRLLKHDFPNNRYEFWEEGATGPTILWTPDNPGIELPTDTAHGEQPVIPSAIPGLEIPEMDDVSILATPMPDEKDFRDYILVFPENAFPPIYVYLSKKIDTPIWLEHHHHHH | not failed |
| MSLSSPNILLTRIDNRLVHGQVGVTWTSTIGANLLVVVDDVVANDDIQQKLMGITAETYGFGIRFFTIEKTINVIGKAAPHQKIFLICRTPQTVRKLVEGGIDLKDVNVGNMHFSEGKKQISSKVYVDDQDLTDLRFIKQRGVNVFIQDVPGDQKEQIPDEGHHHHHH | not failed |
| MYLAEALAQRVEAQRRYSELNQLLLDVAKVQEGDQPAENPHEILTELEELTTRINDLVRRINRTNSVTEFSEGMTLADALSVRDALLKKRTLYSDLADQLTSRQDRYSRSEIKYVATMDAREIRKKADLAAKEYRQLDVDIQRLNWQTELQ | failed |
| LFSDASGEQRLQKIIGQIKKDGSGKDYDCIIGLSGGVDSSYLAVKVKDLGLRPLVVHVDAGWNSELAVSNIEKIVKYCGFDLHTHVINWEEIRDLQLAYMKAAVANQDVPQDHAFFASMYHFAVKNNIKYILSGGNLATEAVFPDTWHG | failed |
| SSDASKVTSKGAGLSKAFVGQKSSFLVDCSKAGSNMLLIGVHGPTTPCEEVSMKHVGNQQYNVTYVVKERGDYVLAVKWGEEHIPGSPFHVTVP | not failed |
| SVPKRQRIRKLQIRNIPPHLQWEVLDSLLVQYGVVESCEQVNTDSETAVVNVTYSSKDQARQALDKLNGFQLENFTLKVAYIPDEMAAQ | not failed |
| EGQPLTRLKHMEPRLMAELGGLCAKLDKALAHFDHPGLARTLQWDPQHAGALIDHLLPVLQDGGQRARIEHATRQANEHLMPLVDQLPSQAVHLDITDDNTVWARDAQRQWQLQGVIDFGDLLRTWRIADLSVTCAALLHHAEGDPLRILPAVQAYQALNPLTEAELRALWPLVLNRAAVLVLSSEQQLTVDPGNQYTRDNIAHEWEIFDTATAVPFALMEAAILQAAGLQPAAP | failed |
| MGKVIGIDLGTTNSCASVLEGGKPIVITNTEGGRTTPSIVGFTKGSQRLVGQLAKRQSVTNAENTVYSIKRFIGRRWDDTVEERSRVPYNCVKGRDDTVSVSIRGQSYTPQEISAMILQKLKADSEAFLGEPVTQAVITVPAYFTDAQRQATKDAGTIAGLEVLRIINEPTAAALAYGLDKQETEELILVFDLGGGTFDVSLLQLGNGVFEVLSTSGNNHLGGDDFDNCVVQWMAESFKQKENIDLSTDKMAIQRLREAAEKAKIELSSMLNTTINLPFITADESGPKHLEMELARSQFEELTKQLLEDTRVPLTQALDDGEIRASDVHRVILVGGSTRIPAIQRVIQEFFPDSQLERSVNPDEAVALGAAIQAGVIGGEVEDVLLLDVTPLSLGLETLGEVTTKIIERNTTIPTSRSEVFSTAVDGQTSVEIHVIQGERAMARDNKSLGKFLLAGIPPAPRGMPQIEVSFEIDVNGILKVSAQDQGTGKEQSIVISHTGGLSGGEIEKMRQEAQQYAAQDQLRLRMMELQNQADSLFHTYETTLQESGELVREELKSSGKQKKDQLAIALRTPNTPVEKLQTLVEEFRQIILLIGTEVYQQGKGAASNEFANFVQGTSSGTSQMIESLETNLNPIQASSGITMTPGTMINGTVNPGGMDYVETAPVYGLDDGEEFDFDADETVYSDYEAID | failed |
| MSLKLIGMLDSPYVRRVAISLKSLGLPFEHHSLSVFSTFEQFKAINPVVKAPTLVCEGGEVLMDSSLIIDYLETLAGPQRSLMPTALPQRLRELRLVGLALAACEKSVQIVYERNLRPAEKQHGPWLERVGGQLQAAYGELEQELQKQPLPRDGSLGQAGISLAVAWSFSQMMVADQFNPGQFPAVRGFAEYAEQLPVFLATPATEGHHHHHH | not failed |
| MAGLSTAELVDIALEMAEMRTLPADSAVYVESTDLKRVMMGIDIGPAELLLARQLGCDGVIAHHPAGGSATLNFPEVLTRHVELMVEHGVPATAARDAIQGLLTRSLLRAQSANHDHTPSVARLLEMPFLNIHLPLDEVGRRIMVKTIQEAVEPLGDEARVQDAIDALMTLPEFAGAATRIMVPVGAVDQPLGKIAVVHGAGTNGGYAVARAYFDHGVRTVLYIHIAPEEAERLRREGGGNLIVTGHIASDLVGINRYVQALEERGVEVVRMSGL | not failed |
| MKKNLFYLFALICSMSLFTACSDDDEAPGNSGVVGEVVGDYKGLMDVYYEPNVEIAKGMQQKITIKKSSDTSIGLELKNFVITVGGAPITIGDLAIDNCPLKVEGDKYSFTGNADLDLVVGKCAVSVEGAINGEDIELIIKVNVNNDLMKVRVEYKGKKMTGNESSEALIKEFKFDSDIIAEQPVINEDKTITFKVAETATDDDLKALKPIITISENATVTPESGVTQDFSGNKVVIYKVTSEDGTTVTEYKVSARKSSDALITSFVFENNPIVAEQPVINEDNTITFKVKASATADDLKALVPTITYSHKATIAPESGVAQDFSDNKKVIYTVTSEDGTVIKEYQVFISGTEDVYDFEKWLPGVEGQEPENTFYEAEGWASSNTGAHFLKGFNLTDSYVIMQTDDSHSGTAAAKIQSIDTKGQDLGIAKAPKVTTGSLFLGKFKTDIFNTLNSTKFGIPCKEKPISLRGWYKYTPGDVYYIVNTKPYKEHCHEAVVDETKVDEFMISVVLYETTAYDEIGWSDCLTGTDEEEKNIYTSSRIAAIGQLIGGAQTDWKKFELPLEWKKQYDTNKKYRMTIACSSSKDGDKFWGAPGSTLIVDDFELIKE | failed |
| MARLILERFLQEHEETPPSKSIINSMLRDPSQIPDGVLANQVYQCIVNDCCYGPLVDCIKHAIGHEHEVLLRDLLLEKNLSFLDEDQLRAKGYDKTPDFILQVPVAVEGHIIHWIESKASFGDECSHHAYLHDQFWSYWNRFGPGLVIYWYGFIQELDCNRERGILLKACFPTNIVTLCHSIA | failed |
| MKAGYETMTPEELRRLTATHDEADYEIVDVREPAEYRQGHLPGAKHIPVGEVEARLDELVPGRTHIFYCRSGARSRAALTFAVESGLTLGPLYDLAGGILAWDGHTVPDEPRLATFAHVSDMRSLLLRAIDMEKAVHGLYTRVRAASGRPVVCELMDRLVGVEVAHARVIYRELRKWWAAADGELPPFETLFETLEGRVLEGGRSVDELEPWIRSASTGDCHEVADLALELEFAAYDLYRTLADEAVQGSGLGEDAARVFLDLASQEKAHARMIVAAMARFGEEGADATA | failed |
| TDSTGIDLHEFLVNTLKKNPRDRMMLLKLEQEILEFINDNNNQFKKFPQMTSYHRMLLHRVAAYFGMDHNVDQTGKAVIINKTSNTRIPEQRFSEHIKDEKNTEFQQRFIL | not failed |
| MKTKTLNTNRFIKLSLLSAIAVILMYIDFPVIPIFPWLKIDLSDVPALMGAFAFGPLAGVIIELMKNLLILIVKGTGTGFVGELANFLVGVALVWPAALVYKKNKTKKTAILGMVLGVLCIEVVGILANVYLLLPAYGMAMSKAELMQYVTVGLIPFNGIKSILVCGITYALYKKVSVSIFKVEPMLDKPKQMKENLG | failed |
| MQDSKIPPFSEAKRMKIPTPKQPLTQLPPRIGKKVSNRSKSNQVHAISHQLEMSPNSDSSPGNEYRALRRKYLLLEEDSFALERELKEAEDEVKALEDEKLELLDKLVVMEGLVDP | failed |
